B1: 60 mer ssDNA (ssDNA)
DNA: ATAAATATCGATGTTAAAGAGGATAAGATTTATAAAATAGCTTCTTATTTTCCTGTAGTA
B2: 60 mer dsDNA (dsDNA)
DNA 1: ATAAATATCGATGTTAAAGAGGATAAGATTTATAAAATAGCTTCTTATTTTCCTGTAGTA
DNA 2: TACTACAGGAAAATAAGAAGCTATTTTATAAATCTTATCCTCTTTAACATCGATATTTAT

What was measured:
TTERecO = TTERecO (Thermoanaerobacter tengcongensis MB4, UniProt Q8RB48 1-247); test: EMSA; 10 uM protein, 2 uM DNA; SPR: 20 mM HEPES pH 7.4, 200 mM NaCl, 0.005% Tween 20, 25 C, SA chip; EMSA: 20 mM HEPES pH 7.4, 200 mM NaCl, 25 C, 30 min, 2 uM DNA; conditions: protein: recombinant; tags: N-terminal His6; label: 5' biotin (SPR)
TTERecR R25G;TTERecO = TTERecR R25G;TTERecO (Thermoanaerobacter tengcongensis …, UniProt Q8RDI4;Q8RB48 1-199;1-247, R28G|); test: SPR; as strong as RecOR; SPR: 20 mM HEPES pH 7.4, 200 mM NaCl, 0.005% Tween 20, 25 C, SA chip; EMSA: 20 mM HEPES pH 7.4, 200 mM NaCl, 25 C, 30 min, 2 uM DNA
TTERecR P16G;TTERecO = TTERecR P16G;TTERecO (Thermoanaerobacter tengcongensis …, UniProt Q8RDI4;Q8RB48 1-199;1-247, P19G|); test: as above
TTERecR;TTERecO = TTERecR;TTERecO (Thermoanaerobacter tengcongensis …, UniProt Q8RDI4;Q8RB48 1-199;1-247, |); test: SPR; SPR: 20 mM HEPES pH 7.4, 200 mM NaCl, 0.005% Tween 20, 25 C, SA chip; EMSA: 20 mM HEPES pH 7.4, 200 mM NaCl, 25 C, 30 min, 2 uM DNA
TTERecR = TTERecR (Thermoanaerobacter tengcongensis MB4, UniProt Q8RDI4 1-199); test: as above
TTERecR P16G = TTERecR P16G (Thermoanaerobacter tengcongensis MB4, UniProt Q8RDI4 1-199, P19G); test: as above
TTERecR R25G = TTERecR R25G (Thermoanaerobacter tengcongensis MB4, UniProt Q8RDI4 1-199, R28G); test: as above

Binder	binding result (TTERecO)	binding result (TTERecR R25G;TTERecO)	binding result (TTERecR P16G;TTERecO)	Kd (TTERecR;TTERecO)	binding result (TTERecR)	binding result (TTERecR P16G)	Kd (TTERecR)	binding result (TTERecR R25G)
B1	no binding	binds	binds	0.931 nM	no binding			
B2		binds	binds	26.4 nM		no binding	24800 nM	no binding
